Assay in all cases: positional peptide library pulldown on immobilised Nb, LC-MS of supernatant; signal ratio to control GFP-Nb (1 = not captured, near 0 = captured)
The target in one assay is T1, BC2T Q11S.
T1 construct: positional scanning library member
T1 peptide: Ac-PDRKAAVSHWSQ-NH2
An excerpt:
(§1) In total, 12 different BC2T libraries displaying all 20 proteinogenic amino acids in one single position of the peptide were used in immunoprecipitation experiments. […] The direct comparison with the GFP-Nb made it possible to determine the quantitative degree of peptide capture without the need of labeled standards. […] The more peptide was captured the more the value approximates 0. It was not possible to discriminate between isoleucine (I) and leucine (L) peptide versions since these peptides are isobaric.
(§2) To investigate the binding specificity of the BC2T and derived mutants peptide libraries for each amino acid position of the sequence […] (SEQ ID NO:4) were synthesized with acetyl and amide groups located at the N-termini or C-termini respectively (Intavis). […] Incubations were performed in 300 μl PBS/0.01% CHAPS for 1 h on a HulaMixer (Life Technologies). Subsequent to a centrifugation step 10 μl supernatant were analyzed in a LC-MS procedure. Peptides were separated using an UltiMate3000 RSLCnano System (Thermo Scientific), composed of a C18 PepMap100μ-Precolumn (300 μm×5 mm; particle size: 5 μm; pore size: 100 Å—Thermo Scientific) and a C18 analytical column (Acclaim Rapid Separation LC (RSLC) Column: 150 mm×5 mm; particle size: 2.2 μm; pore size: 100 Å—Thermo Scientific). A step gradient was applied starting at 8% and ending after 20 min at 30% eluent B (80% acetonitrile, 20% H₂O, 0.1% formic acid).

The target of another assay is T2, BC2T S8V.
T2 construct: positional scanning library member
T2 peptide: Ac-PDRKAAVVHWQQ-NH2
Text: as §1, §2

For another assay, the target named is T3, BC2T Q12H.
T3 construct: positional scanning library member
T3 peptide: Ac-PDRKAAVSHWQH-NH2
Text: as §1, §2

Another assay concerns the target T4, BC2T Q11(I/L1) (N-terminal acetyl; C-terminal amide).
T4 construct: positional scanning library member; I or L not resolved
Text: as §1, §2

For a further assay, the target named is T5, BC2T W10R.
T5 construct: positional scanning library member
T5 peptide: Ac-PDRKAAVSHRQQ-NH2
Text: as §1, §2

The target in another assay is T6, BC2T Q11R.
T6 construct: positional scanning library member
T6 peptide: Ac-PDRKAAVSHWRQ-NH2
Text: as §1, §2

The next assay concerns the target T7, BC2T Q12M.
T7 construct: positional scanning library member
T7 peptide: Ac-PDRKAAVSHWQM-NH2
Text: as §1, §2

The next assay concerns the target T8, BC2T Q11T.
T8 construct: positional scanning library member
T8 peptide: Ac-PDRKAAVSHWTQ-NH2
Text: as §1, §2

The target in a further assay is T9, BC2T Q12N.
T9 construct: positional scanning library member
T9 peptide: Ac-PDRKAAVSHWQN-NH2
Text: as §1, §2

In the next assay the target is T10, BC2T S8F.
T10 construct: positional scanning library member
T10 peptide: Ac-PDRKAAVFHWQQ-NH2
Text: as §1, §2

The target of another assay is T11, BC2T W10A.
T11 construct: positional scanning library member
T11 peptide: Ac-PDRKAAVSHAQQ-NH2
Text: as §1, §2

In the next assay the target is T12, BC2T H9R.
T12 construct: positional scanning library member
T12 peptide: Ac-PDRKAAVSRWQQ-NH2
Text: as §1, §2

The target in a further assay is T13, BC2T S8M.
T13 construct: positional scanning library member
T13 peptide: Ac-PDRKAAVMHWQQ-NH2
Text: as §1, §2

The target of a further assay is T14, BC2T Q11(I/L2) (N-terminal acetyl; C-terminal amide).
T14 construct: positional scanning library member; I or L not resolved
Text: as §1, §2

For a further assay, the target named is T15, BC2T H9W.
T15 construct: positional scanning library member
T15 peptide: Ac-PDRKAAVSWWQQ-NH2
Text: as §1, §2

Another assay addresses T16, BC2T W10H.
T16 construct: positional scanning library member
T16 peptide: Ac-PDRKAAVSHHQQ-NH2
Text: as §1, §2

Another assay addresses T17, BC2T Q11Y.
T17 construct: positional scanning library member
T17 peptide: Ac-PDRKAAVSHWYQ-NH2
Text: as §1, §2

For the next assay, the target named is T18, BC2T W10Q.
T18 construct: positional scanning library member
T18 peptide: Ac-PDRKAAVSHQQQ-NH2
Text: as §1, §2

The target of the next assay is T19, BC2T Q12W.
T19 construct: positional scanning library member
T19 peptide: Ac-PDRKAAVSHWQW-NH2
Text: as §1, §2

Another assay concerns the target T20, BC2T Q12S.
T20 construct: positional scanning library member
T20 peptide: Ac-PDRKAAVSHWQS-NH2
Text: as §1, §2

The next assay concerns the target T21, BC2T S8P.
T21 construct: positional scanning library member
T21 peptide: Ac-PDRKAAVPHWQQ-NH2
Text: as §1, §2

Changes are numbered by the printed parent chain.

B1: BC2 nanobody (VHH)
VHH: QVQLVESGGGLVQPGGSLTLSCTASGFTLDHYDIGWFRQAPGKEREGVSCINNSDDDTYYADSVKGRFTIFMDNAKDTVYLQMNSLKPEDTAIYYCAEARGCKRGRYEYDFWGQGTQVTVSS
notes: immobilised on beads in this assay; also called BC2-Nb; BC2 nanotrap (immobilised)
Consider B1, for which the ratio in the assay with BC2T Q11S was 0.1; with BC2T S8V it was 0.1; with BC2T Q12H, 0.1; with BC2T Q11(I/L1) it was 0.1; with BC2T W10R it was 1; in the assay with BC2T Q11R, 0. Also, the ratio in the assay with BC2T Q12M came to 0.1; with BC2T Q11T, 0.1; in the assay with BC2T Q12N it was 0.1; with BC2T S8F, 0.7; with BC2T W10A it was 1; in the assay with BC2T H9R, 0.1. Moreover, the ratio in the assay with BC2T S8M was determined as 0.6; in the assay with BC2T Q11(I/L2), 0.1; in the assay with BC2T H9W it was 0.1; with BC2T W10H, 1; in the assay with BC2T Q11Y it was 0; with BC2T W10Q it was 1.1. Moreover, the ratio with BC2T Q12W came to 0.1; with BC2T Q12S it was 0.1; with BC2T S8P it was 0.7.

B2: BC2-NbR106S (VHH)
VHH: B1 VHH with R106S
notes: headlock mutant of BC2-Nb; immobilised on beads in this assay
For B2, the ratio with BC2T Q11S worked out at 0.2; in the assay with BC2T S8V, 0.3; with BC2T Q12H, 0.3; in the assay with BC2T Q11(I/L1), 0.2; with BC2T W10R, 1.1; with BC2T Q11R it was 0.1. For the same molecule, the ratio is 0.3 in the assay with BC2T Q12M; 0.2 with BC2T Q11T; 0.2 with BC2T Q12N; 0.9 with BC2T S8F; 1 with BC2T W10A; 0.2 with BC2T H9R. The ratio with BC2T S8M was 1; in the assay with BC2T Q11(I/L2), 0.4; with BC2T H9W, 0.1; with BC2T W10H it was 1.1; with BC2T Q11Y it was 0.1; with BC2T W10Q, 1.1. In addition, the ratio stood at 0.3 with BC2T Q12W, 0.2 in the assay with BC2T Q12S and 1 with BC2T S8P.

For the origin of these results see patent US20170137467A1 (CHROMOTEK, published 2017).
